Reference: PMC7666136

B1: eGFP-53BP1 (wild-type TP53-binding protein 1 tagged with enhanced green fluorescent protein) [not stated] / itself (parent)
chain: MDPTGSQLDSDFSQQDTPCLIIEDSQPESQVLEDDSGSHFSMLSRHLPNLQTHKENPVLDVVSNPEQTAGEERGDGNSGFNEHLKENKVADPVDSSNLDTCGSISQVIEQLPQPNRTSSVLGMSVESAPAVEEEKGEELEQKEKEKEEDTSGNTTHSLGAEDTASSQLGFGVLELSQSQDVEENTVPYEVDKEQLQSVTTNSGYTRLSDVDANTAIKHEEQSNEDIPIAEQSSKDIPVTAQPSKDVHVVKEQNPPPARSEDMPFSPKASVAAMEAKEQLSAQELMESGLQIQKSPEPEVLSTQEDLFDQSNKTVSSDGCSTPSREEGGCSLASTPATTLHLLQLSGQRSLVQDSLSTNSSDLVAPSPDAFRSTPFIVPSSPTEQEGRQDKPMDTSVLSEEGGEPFQKKLQSGEPVELENPPLLPESTVSPQASTPISQSTPVFPPGSLPIPSQPQFSHDIFIPSPSLEEQSNDGKKDGDMHSSSLTVECSKTSEIEPKNSPEDLGLSLTGDSCKLMLSTSEYSQSPKMESLSSHRIDEDGENTQIEDTEPMSPVLNSKFVPAENDSILMNPAQDGEVQLSQNDDKTKGDDTDTRDDISILATGCKGREETVAEDVCIDLTCDSGSQAVPSPATRSEALSSVLDQEEAMEIKEHHPEEGSSGSEVEEIPETPCESQGEELKEENMESVPLHLSLTETQSQGLCLQKEMPKKECSEAMEVETSVISIDSPQKLAILDQELEHKEQEAWEEATSEDSSVVIVDVKEPSPRVDVSCEPLEGVEKCSDSQSWEDIAPEIEPCAENRLDTKEEKSVEYEGDLKSGTAETEPVEQDSSQPSLPLVRADDPLRLDQELQQPQTQEKTSNSLTEDSKMANAKQLSSDAEAQKLGKPSAHASQSFCESSSETPFHFTLPKEGDIIPPLTGATPPLIGHLKLEPKRHSTPIGISNYPESTIATSDVMSESMVETHDPILGSGKGDSGAAPDVDDKLCLRMKLVSPETEASEESLQFNLEKPATGERKNGSTAVAESVASPQKTMSVLSCICEARQENEARSEDPPTTPIRGNLLHFPSSQGEEEKEKLEGDHTIRQSQQPMKPISPVKDPVSPASQKMVIQGPSSPQGEAMVTDVLEDQKEGRSTNKENPSKALIERPSQNNIGIQTMECSLRVPETVSAATQTIKNVCEQGTSTVDQNFGKQDATVQTERGSGEKPVSAPGDDTESLHSQGEEEFDMPQPPHGHVLHRHMRTIREVRTLVTRVITDVYYVDGTEVERKVTEETEEPIVECQECETEVSPSQTGGSSGDLGDISSFSSKASSLHRTSSGTSLSAMHSSGSSGKGAGPLRGKTSGTEPADFALPSSRGGPGKLSPRKGVSQTGTPVCEEDGDAGLGIRQGGKAPVTPRGRGRRGRPPSRTTGTRETAVPGPLGIEDISPNLSPDDKSFSRVVPRVPDSTRRTDVGAGALRRSDSPEIPFQAAAGPSDGLDASSPGNSFVGLRVVAKWSSNGYFYSGKITRDVGAGKYKLLFDDGYECDVLGKDILLCDPIPLDTEVTALSEDEYFSAGVVKGHRKESGELYYSIEKEGQRKWYKRMAVILSLEQGNRLREQYGLGPYEAVTPLTKAADISLDNLVEGKRKRRSNVSSPATPTASSSSSTTPTRKITESPRASMGVLSGKRKLITSEEERSPAKRGRKSATVKPGAVGAGEFVSPCESGDNTGEPSALEEQRGPLPLNKTLFLGYAFLLTMATTSDKLASRSKLPDGPTGSSEEEEEFLEIPPFNKQYTESQLRAGAGYILEDFNEAQCNTAYQCLLIADQHCRTRKYFLCLASGIPCVSHVWVHDSCHANQLQNYRNYLLPAGYSLEEQRILDWQPRENPFQNLKVLLVSDQQQNFLELWSEILMTGGAASVKQHHSSAHNKDIALGVFDVVVTDPSCPASVLKCAEALQLPVVSQEWVIQCLIVGERIGFKQHPKYKHDYVSH

Variants of: B1
Assay: Homo-FRET (FAIM, fluorescence anisotropy imaging) in live DIvA cells
Details: with itself; live DIvA cell nuclei, N = 5 cells, two biological replicates; value is the box median; read off a plot

Variant	screen value [delta r]
chain 1 Y1258A Y1259A	0.01
